Assay results published in patent US20050032185.

Key:
[1] = system: GST-PKBα (full length human protein kinase Bα with N-terminal glutathione S-transferase, from unstimulated 293 cells) [GST: P08515]
[2] = target: HA-PKBα (haemagglutinin epitope-tagged human PKBα expressed in 293 cells) (UniProt P31749)
[3] = target: GST-ΔPH-PKBα (residues 118-479 of human PKBα, lacking the PH domain) (UniProt P31749)
Chain of GST-ΔPH-PKBα (residues 118-479 of human PKBα, lacking the PH domain) (P31749 whole entry, looked up, stated change not applied, the tested form may be a part): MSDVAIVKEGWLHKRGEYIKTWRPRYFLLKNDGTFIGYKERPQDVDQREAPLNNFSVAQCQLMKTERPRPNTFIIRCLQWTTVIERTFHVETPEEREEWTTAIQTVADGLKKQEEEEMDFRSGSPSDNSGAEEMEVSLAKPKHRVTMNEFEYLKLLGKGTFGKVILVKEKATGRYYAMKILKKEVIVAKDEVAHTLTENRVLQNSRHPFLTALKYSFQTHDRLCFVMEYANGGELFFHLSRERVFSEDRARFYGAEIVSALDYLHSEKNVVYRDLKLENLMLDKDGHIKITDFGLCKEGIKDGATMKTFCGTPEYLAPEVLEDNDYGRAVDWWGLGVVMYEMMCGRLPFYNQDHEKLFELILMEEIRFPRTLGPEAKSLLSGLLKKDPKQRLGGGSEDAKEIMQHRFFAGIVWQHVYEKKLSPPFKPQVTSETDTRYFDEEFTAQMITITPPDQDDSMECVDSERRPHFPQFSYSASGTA

Chain of GST-PKBα (full length human protein kinase Bα with N-terminal glutathione S-transferase, from unstimulated 293 cells) [GST: P08515] (P08515 whole entry, looked up): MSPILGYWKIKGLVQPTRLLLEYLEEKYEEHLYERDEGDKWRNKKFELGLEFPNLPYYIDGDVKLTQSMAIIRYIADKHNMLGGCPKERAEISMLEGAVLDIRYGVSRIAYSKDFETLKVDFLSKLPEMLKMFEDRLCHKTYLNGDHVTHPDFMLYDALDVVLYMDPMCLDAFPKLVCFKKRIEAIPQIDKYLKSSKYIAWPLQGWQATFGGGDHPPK
Chain of HA-PKBα (haemagglutinin epitope-tagged human PKBα expressed in 293 cells) (P31749 whole entry, looked up, the tested form may be a part): as the sequence (P31749 whole entry, looked up, stated change not applied, the tested form may be a part) above

GST-D223A-PDK1 (full length catalytically inactive human PDK1, Asp223 changed to Ala)
phosphorylation and activation of GST-PKBα [1]: did not phosphorylate or active GST-PKBα in the presence of PtdCho/PtdSer lipid vesicles containing PtdIns(3,4,5)P3 (data not shown)

GST-ΔPH-PDK1 (residues 1-450 of human PDK1, lacking the putative C-terminal PH domain)
rate of activation of GST-PKBα by GST-ΔPH-PDK1 compared to full length wild-type GST-PDK1 [1]: the rate of activation was reduced about 30-fold compared to full length wild-type GST-PDK1

PtdIns(3,4,5)P3-dependent protein kinase-1 (PDK1) purified from rabbit skeletal muscle
fold increase in GST-PKBα activity with sn-1,2-dilinoleoyl D-PtdIns(3,4,5)P3 [1]: causing a 36-fold increase in GST-PKBα activity
fold increase in GST-PKBα activity with sn-1,2-dipalmitoyl PtdIns(3,4)P2 (lipid 7) [1]: both inositol phospholipids increasing GST-PKBα activity about 6-fold
fold increase in GST-PKBα activity with sn-1,2-dipalmitoyl PtdIns(3,4,5)P3 (lipid 6) [1]: both inositol phospholipids increasing GST-PKBα activity about 6-fold
increase in GST-PKBα activity [1]: a >30-fold increase in activity
phosphorylation of GST-PKBα (mol 32P per mol protein) [1]: to a level approaching 0.7 moles of 32 P/mol protein
phosphorylation of GST-PKBα (mol/mol) in the sample used for site mapping [1]: phosphorylated to 0.4-0.6 mol/mol with PDK1
specific activity of GST-PKBα reached after phosphorylation by PDK1 [1]: reached a specific activity of 80 U/mg
specific activity of PDK1 after Mono S (units of GST-PKBα activation per mg) [1]: 69500 U/mg
specific activity towards GST-PKBα in the presence of PtdIns(3,4,5)P3 [1]: PDK1 purified from rabbit skeletal muscle (100 000 U/mg)
phosphorylation of immunoprecipitated HA-PKB by PDK1 [2]: immunoprecipitated HA-PKB was not phosphorylated effectively by PDK1
activation and phosphorylation of GST-ΔPH-PKBα [3]: also activated and phosphorylated GST-ΔPH-PKBα in a PtdIns(3,4,5)P3 independent manner (data not shown)
